Test results taken from PMC12775136, “Mechanistic insights into recruitment and regulation of the RNA helicase UPF1 in replication-dependent histone mRNA decay”.

Key:
[1] = target: SLBPfl (human, UniProt Q14493 1-270); test: fluorescence anisotropy; 0.5 mM EDTA; Fluorescence anisotropy: 20 mM HEPES pH 7.5, 100 mM NaCl, 0.5 mM EDTA, 100 ug/ml BSA; 30 min at room temperature, read at 25 C; one-site fit with Hill slope, n=3; settings: protein: recombinant, tags: 6xHis-TEV (N-terminal), label: 5' 6-FAM
[2] = target: T1, 3'hExofl (ERI1) (human, UniProt Q8IV48 1-349); test: fluorescence anisotropy; 0.5 mM EDTA, no Mg2+; Kd shown only in figure; Fluorescence anisotropy: 20 mM HEPES pH 7.5, 100 mM NaCl, 0.5 mM EDTA, 100 ug/ml BSA; 30 min at room temperature, read at 25 C; one-site fit with Hill slope, n=3; settings: protein: recombinant, tags: 6xHis, HRV-3C site (N-terminal), label: 5' 6-FAM, hairpin
T1 sequence: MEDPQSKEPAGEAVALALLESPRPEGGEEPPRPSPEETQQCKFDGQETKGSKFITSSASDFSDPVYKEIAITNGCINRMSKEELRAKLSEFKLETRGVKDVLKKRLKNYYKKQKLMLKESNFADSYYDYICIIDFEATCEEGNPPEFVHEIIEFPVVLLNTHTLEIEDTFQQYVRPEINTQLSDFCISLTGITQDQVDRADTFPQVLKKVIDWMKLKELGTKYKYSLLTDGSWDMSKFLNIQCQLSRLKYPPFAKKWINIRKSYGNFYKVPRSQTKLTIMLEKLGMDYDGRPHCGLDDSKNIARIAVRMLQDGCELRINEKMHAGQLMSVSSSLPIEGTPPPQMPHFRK

[3] = target: T1, 3'hExofl (ERI1); test: fluorescence anisotropy; 0.5 mM EDTA, no Mg2+; affinity comparable to SL26 and SL24; Kd shown only in figure; Fluorescence anisotropy: 20 mM HEPES pH 7.5, 100 mM NaCl, 0.5 mM EDTA, 100 ug/ml BSA; 30 min at room temperature, read at 25 C; one-site fit with Hill slope, n=3; settings: protein: recombinant; tags: 6xHis, HRV-3C site (N-terminal); label: 5' 6-FAM; partial hairpin; 3' arm lacks last 2 stem nt
[4] = target: T2, UPF1-CHh (human, UniProt Q92900-2 115-914); test: cryoEM structure (3.6 A); no ATP; Zn2+; Fluorescence anisotropy: 20 mM HEPES pH 7.5, 100 mM NaCl, 0.5 mM EDTA, 100 ug/ml BSA; 30 min at room temperature, read at 25 C; one-site fit with Hill slope, n=3; settings: protein: recombinant; tags: 6xHis; hairpin with 5' single-stranded U12 extension
T2 sequence: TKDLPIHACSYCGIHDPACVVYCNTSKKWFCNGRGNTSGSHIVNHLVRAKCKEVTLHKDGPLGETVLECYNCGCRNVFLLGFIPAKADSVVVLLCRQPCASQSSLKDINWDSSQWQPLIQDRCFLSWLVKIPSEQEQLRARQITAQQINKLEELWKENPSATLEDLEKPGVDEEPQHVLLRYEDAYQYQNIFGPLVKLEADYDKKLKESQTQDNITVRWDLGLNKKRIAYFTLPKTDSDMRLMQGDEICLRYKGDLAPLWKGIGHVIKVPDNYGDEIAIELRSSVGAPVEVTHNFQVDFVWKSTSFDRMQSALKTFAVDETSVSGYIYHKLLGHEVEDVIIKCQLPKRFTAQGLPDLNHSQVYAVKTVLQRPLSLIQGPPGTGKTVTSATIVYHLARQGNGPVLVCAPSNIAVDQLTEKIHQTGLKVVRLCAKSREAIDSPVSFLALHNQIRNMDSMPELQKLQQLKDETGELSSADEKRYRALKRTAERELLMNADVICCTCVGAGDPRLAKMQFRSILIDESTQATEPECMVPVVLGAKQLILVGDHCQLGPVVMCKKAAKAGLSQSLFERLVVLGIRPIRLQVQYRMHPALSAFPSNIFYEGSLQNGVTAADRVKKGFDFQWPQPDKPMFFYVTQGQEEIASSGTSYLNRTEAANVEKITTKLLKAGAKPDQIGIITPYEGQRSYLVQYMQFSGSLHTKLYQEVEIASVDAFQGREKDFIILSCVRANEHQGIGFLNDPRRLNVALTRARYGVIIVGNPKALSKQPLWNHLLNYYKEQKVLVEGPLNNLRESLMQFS

[5] = target: T3, UPF1-Hel;SLBP-N (human;human, UniProt Q92900-2;Q14493 295-914;1-198, |); test: preparative SEC; ternary complex reconstituted for crosslinking MS; Fluorescence anisotropy: 20 mM HEPES pH 7.5, 100 mM NaCl, 0.5 mM EDTA, 100 ug/ml BSA; 30 min at room temperature, read at 25 C; one-site fit with Hill slope, n=3; settings: protein: recombinant;recombinant; tags: 6xHis;6xHis-TEV; copies: 1;1; hairpin with 5' single-stranded U12 extension
[6] = target: T3, UPF1-Hel;SLBP-N; test: analytical SEC; stable UPF1-SLBP complex only with SL26; Fluorescence anisotropy: 20 mM HEPES pH 7.5, 100 mM NaCl, 0.5 mM EDTA, 100 ug/ml BSA; 30 min at room temperature, read at 25 C; one-site fit with Hill slope, n=3; settings: protein: recombinant;recombinant; tags: 6xHis;6xHis-TEV; copies: 1;1; hairpin, 6 bp stem, 4 nt loop

CCAAAGGCUCUUUUCAGAGCCACU (structured_RNA) [6-FAM-SL24]
Kd ([1]; hairpin, intact 6 bp stem): ~7 nM | binding result ([2]; intact 6 bp stem): binds

CCAAAGGCUCUUUUCAGAGCCACCCA (structured_RNA) [6-FAM-SL26]
Kd ([1]; hairpin, 6 bp stem, 4 nt loop): ~6 nM | binding result ([2]; 6 bp stem, 4 nt loop): binds

CCAAAGGCUCUUUUCAGAG (structured_RNA) [6-FAM-SL19]
Kd ([1]; partial hairpin, 3' arm lacks last 2 stem nt): ~500 nM | binding result [3]: binds

UUUUUUUUUUUUCCAAAGGCUCUUUUCAGAGCCACCCA (structured_RNA) [U-SL (12U-26SL)]
binding result [4]: binds | binding result [5]: binds

CCAAAGGCUCUUUUCAGAGCCACCCA (structured_RNA) [SL26 RNA (SEC)]
binding result [6]: binds
